We go through 1 molecule from patent US20070253950A1 (Pfizer, published 2007).

In test [1] the target is T1, human RAGE-Fc fusion protein (human, UniProt Q15109 23-344).
T1 construct: amino acids 1-344 of human RAGE appended to the Fc domain of human IgG; also called hRAGE-Fc; huRAGE-Fc
Briefly: ligand competition ELISA, panel 'Blocks hRAGE-Fc interaction with HMGB1'; blocked ligand HMGB1.

In test [2] the target is T2, human RAGE-strep tag fusion protein (human, UniProt Q15109 23-344).
T2 construct: monomeric soluble human RAGE; also called hRAGE-SA; soluble human streptavidin-tagged RAGE
Briefly: BIACORE capture assay: hRAGE-SA over antibody captured on anti-human Fc; 1:1 Langmuir global fit; FC2. As for the experimental part:
(§1) The assays were performed by coating anti-human Fc antibodies onto a CM5 BIA chip with 5000 RU (pH 5.0, 7 min.) in flow cells 1-4. Each antibody was captured by flowing at 2.0 μg/ml over the anti-Fc antibodies in flow cells 2-4 (flow cell 1 was used as a reference).

The target of test [3] is T2, human RAGE-strep tag fusion protein. Briefly: BIACORE capture assay: hRAGE-SA over antibody captured on anti-human Fc; steady state affinity; FC3. Here is the method:
as §1

Test [4] shares this target. Briefly: BIACORE capture assay: hRAGE-SA over antibody captured on anti-human Fc; steady state affinity; average of FC2-FC4. Here is the method: as §1
In general terms: SPR reads the build-up and loss of mass on a sensor chip optically.

Test [5] concerns the target T1, human RAGE-Fc fusion protein. Briefly: ligand competition ELISA, panel 'Blocks hRAGE-Fc interaction with A-beta'; blocked ligand amyloid beta 1-42 peptide. (An ELISA detects its analyte on a solid surface through an enzyme-linked reagent.)
The target in test [6] is T2, human RAGE-strep tag fusion protein. Put plainly: BIACORE, antibody coated on CM5 chip, hRAGE-SA in flow. Here is the method: The assays were performed by coating antibodies onto a CM5 BIA chip with 5000-7000 RU.
A further test addresses T3, rhVCAM-1 (human, UniProt P19320 25-698).
T3 sequence (looked up): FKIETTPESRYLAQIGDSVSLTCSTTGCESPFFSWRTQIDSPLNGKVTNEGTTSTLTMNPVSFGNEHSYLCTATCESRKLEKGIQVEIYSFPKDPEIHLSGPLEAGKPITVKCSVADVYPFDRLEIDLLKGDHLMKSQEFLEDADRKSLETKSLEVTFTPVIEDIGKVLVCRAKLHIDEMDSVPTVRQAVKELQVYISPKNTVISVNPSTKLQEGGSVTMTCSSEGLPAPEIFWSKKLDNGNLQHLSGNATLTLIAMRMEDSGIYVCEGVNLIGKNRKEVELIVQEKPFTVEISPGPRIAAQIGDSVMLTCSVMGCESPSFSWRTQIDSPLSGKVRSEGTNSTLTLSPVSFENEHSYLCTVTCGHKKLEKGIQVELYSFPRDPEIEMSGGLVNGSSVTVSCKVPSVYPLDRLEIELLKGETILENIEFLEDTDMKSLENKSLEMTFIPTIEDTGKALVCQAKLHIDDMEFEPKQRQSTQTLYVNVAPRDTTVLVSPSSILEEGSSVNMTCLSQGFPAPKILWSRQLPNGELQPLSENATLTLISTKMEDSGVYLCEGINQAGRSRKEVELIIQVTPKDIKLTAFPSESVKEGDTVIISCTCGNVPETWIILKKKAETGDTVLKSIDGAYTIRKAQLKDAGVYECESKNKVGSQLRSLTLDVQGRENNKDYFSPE
Put plainly: direct binding ELISA, receptor coated 1 µg/ml, antibody 20 µg/ml. As for the experimental part:
(§2) These receptors were chosen because they are cell-surface expressed, like RAGE, and their interaction with ligand is similarly dependent on charge. Tested receptors were rhVCAM-1, rhICAM-1-Fc, rhTLR4 (C-terminal His tag), rhNCAM-1, rhB7-H1-Fc mLox1-Fc, hLox1-Fc and hRAGE-Fc (as a positive control). ELISA plates were coated overnight with 1 μg/ml of the listed receptor proteins.

Test [7] concerns the target T1, human RAGE-Fc fusion protein. The description is as above. As for the experimental part: as §2
The target of another test is rhB7-H1-Fc (human, UniProt Q9NZQ7 19-239). The description is as above. As for the experimental part:
as §2

A further test addresses rhNCAM-1 (human, UniProt P13591-1 20-603, limits assumed). The test is described as above. As for the experimental part: as §2
The target of a further test is mLox1-Fc (mouse, UniProt Q9EQ09 60-363, limits assumed). Described as above. As for the experimental part:
as §2

The target of another test is T4, rhICAM-1-Fc (human, UniProt P05362 28-480).
T4 construct: also called rhlCAM-1-Fc
T4 sequence (P05362 28-480 limits assumed): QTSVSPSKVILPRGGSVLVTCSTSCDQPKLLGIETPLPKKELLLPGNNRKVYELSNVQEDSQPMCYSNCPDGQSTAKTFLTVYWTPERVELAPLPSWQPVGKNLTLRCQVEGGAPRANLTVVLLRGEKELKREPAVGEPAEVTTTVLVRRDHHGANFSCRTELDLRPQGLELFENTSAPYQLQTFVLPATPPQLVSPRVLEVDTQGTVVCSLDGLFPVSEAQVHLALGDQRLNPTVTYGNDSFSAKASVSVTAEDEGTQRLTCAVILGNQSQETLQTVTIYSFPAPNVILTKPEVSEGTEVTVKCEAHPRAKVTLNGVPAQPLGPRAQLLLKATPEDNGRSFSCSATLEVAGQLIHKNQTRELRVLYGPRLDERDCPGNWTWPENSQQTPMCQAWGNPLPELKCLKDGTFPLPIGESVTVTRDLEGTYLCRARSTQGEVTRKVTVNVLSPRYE
The test is described as above. Here is the method: as §2

Another test concerns the target hLox1-Fc (human, UniProt P78380 61-273). The test is described as above. Here is the method: as §2
Test [8] deals with T2, human RAGE-strep tag fusion protein. Put plainly: BIACORE, antibody coated on CM5 chip, hRAGE-SA in flow. The source holds these as a separate data set.

rhNCAM-1, sequence (P13591 other isoform, or with tags, fused parts or gaps limits assumed): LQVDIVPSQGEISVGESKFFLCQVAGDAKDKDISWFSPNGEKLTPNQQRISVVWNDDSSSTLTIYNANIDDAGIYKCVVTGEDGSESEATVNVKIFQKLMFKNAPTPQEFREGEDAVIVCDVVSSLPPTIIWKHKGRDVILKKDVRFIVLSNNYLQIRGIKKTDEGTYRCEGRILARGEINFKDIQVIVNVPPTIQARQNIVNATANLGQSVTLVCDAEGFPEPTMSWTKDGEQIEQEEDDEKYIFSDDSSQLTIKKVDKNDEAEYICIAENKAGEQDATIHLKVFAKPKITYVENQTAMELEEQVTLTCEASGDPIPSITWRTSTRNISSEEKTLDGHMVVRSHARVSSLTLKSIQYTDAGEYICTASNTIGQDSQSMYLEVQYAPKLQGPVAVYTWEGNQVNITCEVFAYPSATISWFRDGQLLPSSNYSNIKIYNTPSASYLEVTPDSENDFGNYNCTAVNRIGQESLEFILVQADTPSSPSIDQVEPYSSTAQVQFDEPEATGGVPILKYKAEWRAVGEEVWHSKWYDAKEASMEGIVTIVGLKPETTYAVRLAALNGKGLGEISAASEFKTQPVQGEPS
mLox1-Fc, sequence (Q9EQ09 60-363 limits assumed): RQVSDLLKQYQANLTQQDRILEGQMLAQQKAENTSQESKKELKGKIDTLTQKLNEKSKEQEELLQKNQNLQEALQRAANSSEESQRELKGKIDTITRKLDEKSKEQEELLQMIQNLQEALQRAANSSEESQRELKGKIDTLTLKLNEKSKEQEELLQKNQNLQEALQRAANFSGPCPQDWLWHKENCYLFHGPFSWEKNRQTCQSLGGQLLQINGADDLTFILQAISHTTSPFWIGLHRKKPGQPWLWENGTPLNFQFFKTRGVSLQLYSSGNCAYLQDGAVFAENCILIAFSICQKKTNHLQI
rhB7-H1-Fc, sequence (Q9NZQ7 19-239 limits assumed): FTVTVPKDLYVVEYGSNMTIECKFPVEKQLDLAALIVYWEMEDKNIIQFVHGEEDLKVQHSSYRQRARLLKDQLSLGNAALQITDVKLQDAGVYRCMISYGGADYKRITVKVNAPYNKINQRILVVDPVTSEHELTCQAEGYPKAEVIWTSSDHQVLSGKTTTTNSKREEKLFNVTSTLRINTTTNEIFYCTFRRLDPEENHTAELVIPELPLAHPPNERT

B1: chimeric XT-M4 (antibody, V domains shown)
VH: EVQLVESGGGLVQPGRSLKLSCVVSGFTFNNYWMTWIRQTPGKGLEWVASINNSGDNTYYPDSVKDRFTISRDNAKSTLYLQMNSLRSEDTATYYCTRGGDITTGFDYWGQGVMVTVSS
VL: DIQMTQSPSSMSVSLGDTITITCRASQDVGIYVNWFQQKPGKSPRRMIYRATNLADGVPSRFSGSRSGSIYSLTISSLESEDVADYHCLEFDEHPLTFGSGTKVEIK
modifications: N-linked oligosaccharide at Asn52 (CDR2) on part of the heavy chains
notes: rat XT-M4 variable regions fused to human kappa light chain and human IgG1 heavy chain constant regions; L234A and G237A in the human IgG1 Fc region; also called chimeric antibody XT-M4; XT-M4-A-1
For B1, the “IC50 (read off the curve)” value in test [1] and in test [5] was ~0.1 µg/mL throughout. Besides, the Kd in test [2] was 8.2 nM; in test [3], 11 nM; in test [4] it was 11 nM; in test [6] it was 5.66 nM; in test [8] it was ~5.5 nM. Also, the off-rate (koff) in test [2] is 0.0281 s⁻¹; in test [6], 0.0248 s⁻¹. The on-rate (kon) in [2] turned out to be 3.42e+06 M⁻¹ s⁻¹; in test [6] it was 4.39e+06 M⁻¹ s⁻¹. In test [6], this molecule displayed a Ka of 1.77e+08 M⁻¹. The OD450 came out at 0.004 with rhVCAM-1; 3.8 in [7]; 0.003 with rhB7-H1-Fc; 0.006 with rhNCAM-1; 0.01 with mLox1-Fc; 0.004 with rhICAM-1-Fc. Also, in the test with hLox1-Fc, the OD450 is 0.017.

As usually defined, the Kd is the constant that tells how readily two partners part at equilibrium. Lower therefore signals tighter binding. Usually koff stands for the first-order rate constant of dissociation. As usually defined, the kon is a measure of how fast the partners come together.
